Test results from patent publication US10441663B2, “Methods for treating cancer” (Bicycle Therapeutics Limited, priority 2016, dated 2019).
*1 amine or outer side, *2 acyl side, *3 side chain or, on linkers, in order; H or OH if unused. Where a SMILES comes first, the peptide text is derived from it. Bridges are numbered along the chain shown (N, C = ends). [ ]: non-standard residue; d: D form. The star is where a group is joined. X1 = COc1cc2cc(c1Cl)N(C)C(=O)C[C@H](OC(=O)[C@H](C)N(C)C(=O)CCSSC(C)CCC(=O)*)[C@]1(C)O[C@H]1[C@H](C)[C@@H]1C[C@@](O)(NC(=O)O1)[C@H](OC)/C=C/C=C(\C)C2; 1Nal = N[C@@H](Cc1cccc2ccccc12)C(=O)O; TBMB = c1c(C[*:1])cc(C[*:3])cc1C[*:2]; Tle = CC(C)(C)[C@H](N)C(=O)O; βAla = NCCC(=O)O; Sar = CNCC(=O)O

Test system: EBC-1 xenograft
Assay: Efficacy of BT1718 in EBC-1 xenograft model (Example 1)
Type: in vivo, Mus Musculus
Details: for Tumor Size (mm^3): Mean ± SEM
Protocol: The objective of this study was to evaluate the anti-tumor efficacy of BT1718 in EBC-1 xenograft model in female BALB/c nude mice.
The EBC-1 tumor cells were maintained in vitro as a monolayer culture in EMEM medium supplemented with 10% heat inactivated fetal bovine serum at 37° C. in an atmosphere of 5% CO2 in air. The tumor cells will be routinely subcultured twice weekly by trypsin-EDTA treatment. The cells growing in an exponential growth phase will be harvested and counted for tumor inoculation.
Each mouse was inoculated subcutaneously at the right flank with EBC-1 tumor cells (10×10^6) in 0.2 ml of PBS for tumor development. The animals were randomized and treatment was started when the average tumor volume reaches approximately 165 mm^3 for the efficacy study.
All the procedures related to animal handling, care and the treatment in the study were performed according to the guidelines of the Association for Assessment and Accreditation of Laboratory Animal Care (AAALAC). At the time of routine monitoring, the animals were daily checked for any effects of tumor growth and treatments on normal behavior such as mobility, food and water consumption (by looking only), body weight gain/loss (body weights were measured every day), eye/hair matting and any other abnormal effect as stated in the protocol. Death and observed clinical signs were recorded on the basis of the numbers of animals within each subset.
The major endpoint was to see if the tumor growth could be delayed or mice could be cured. Tumor size was measured three times weekly in two dimensions using a caliper, and the volume was expressed in mm^3 using the formula: V=0.5 a×b^2 where a and b are the long and short diameters of the tumor, respectively. The tumor size was then used for calculations of T/C value. The T/C value (in percent) is an indication of antitumor effectiveness; T and C are the mean volumes of the treated and control groups, respectively, on a given day.
TGI was calculated for each group using the formula: TGI (%)=[1−(Ti−T0)/(Vi−V0)]×100; Ti is the average tumor volume of a treatment group on a given day, T0 is the average tumor volume of the treatment group on the day of treatment start, Vi is the average tumor volume of the vehicle control group on the same day with Ti, and V0 is the average tumor volume of the vehicle group on the day of treatment start.
Summary statistics, including mean and the standard error of the mean (SEM), are provided for the tumor volume of each group at each time point.
Statistical analysis of difference in tumor volume among the groups was conducted on the data obtained at the best therapeutic time point after the final dose.
A one-way ANOVA was performed to compare tumor volume among groups, and when a significant F-statistics (a ratio of treatment variance to the error variance) was obtained, comparisons between groups were carried out with Games-Howell test. All data were analyzed using Prism. P<0.05 was considered to be statistically significant.

## COc1cc2cc(c1Cl)N(C)C(=O)C[C@H](OC(=O)[C@H](C)N(C)C(=O)CCSSC(C)CCC(=O)NCCC(=O)N(C)CC(=O)N(C)CC(=O)N(C)CC(=O)N(C)CC(=O)N(C)CC(=O)N(C)CC(=O)N(C)CC(=O)N(C)CC(=O)N(C)CC(=O)N(C)CC(=O)N[C@@H](C)C(=O)N[C@H]1CSCc3cc4cc(c3)CSC[C@H](NC(=O)[C@@H](C)NC(=O)[C@H](Cc3cccc5ccccc35)NC(=O)[C@H](CCC(=O)O)NC(=O)[C@H](CC(N)=O)NC(=O)[C@@H](C)NC1=O)C(=O)N[C@@H](CCC(=O)O)C(=O)N[C@@H](CC(=O)O)C(=O)N[C@@H](Cc1ccccc1)C(=O)N[C@@H](Cc1ccc(O)cc1)C(=O)N[C@@H](CC(=O)O)C(=O)N[C@@H](C(C)(C)C)C(=O)N[C@H](C(N)=O)CSC4)[C@]1(C)O[C@H]1[C@H](C)[C@@H]1C[C@@](O)(NC(=O)O1)[C@H](OC)/C=C/C=C(\C)C2 (stereo partly shown) [BT1718] ({X1-βAla}-[Sar][Sar][Sar][Sar][Sar][Sar][Sar][Sar][Sar][Sar]AC[dA]NE[1Nal][dA]CEDFYD[Tle]C-NH2; linker 12-18-25 via TBMB (inferred))
4.3 mpk qd, day 0
  Body Weight (% Change): 0.0%
  Tumor Volume: 165 ± 18 mm^3
4.3 mpk qd, day 2
  Body Weight: 23.9 ± 0.5 g
  Body Weight (% Change): −3.4 ± 1.1%
  Tumor Volume: 209 ± 7 mm^3
4.3 mpk qd, day 4
  Body Weight: 23.6 ± 0.8 g
  Body Weight (% Change): −4.6 ± 2.0%
  Tumor Volume: 154 ± 10 mm^3
4.3 mpk qd, day 7
  Body Weight: 23.7 ± 0.5 g
  Body Weight (% Change): −4.2 ± 1.3%
  Tumor Volume: 81 ± 3 mm^3
4.3 mpk qd, day 9
  Body Weight: 23.5 ± 0.5 g
  Body Weight (% Change): −5.2 ± 1.2%
  Tumor Volume: 39 ± 3 mm^3
4.3 mpk qd, day 11
  Body Weight: 24.7 ± 0.7 g
  Body Weight (% Change): −0.4 ± 1.7%
  Tumor Volume: 6 ± 3 mm^3
4.3 mpk qd, day 14
  Body Weight: 23.5 ± 0.6 g
  Body Weight (% Change): −5.1 ± 1.9%
  T/C (%): 0%
  TGI (%): 115%
  Tumor Volume: 0 ± 0 mm^3
  Tumor Size (mm^3): 0 ± 0 mm^3
4.5 mpk biw, day 0
  Body Weight: 24.0 ± 0.6 g
  Body Weight (% Change): 0.0%
  Tumor Volume: 161 ± 21 mm^3
4.5 mpk biw, day 2
  Body Weight: 23.4 ± 0.6 g
  Body Weight (% Change): −2.2 ± 1.0%
  Tumor Volume: 239 ± 15 mm^3
4.5 mpk biw, day 4
  Body Weight: 23.7 ± 0.6 g
  Body Weight (% Change): −1.3 ± 0.7%
  Tumor Volume: 276 ± 28 mm^3
4.5 mpk biw, day 7
  Body Weight: 24.8 ± 0.7 g
  Body Weight (% Change): 3.3 ± 0.9%
  Tumor Volume: 296 ± 29 mm^3
4.5 mpk biw, day 9
  Body Weight: 24.2 ± 0.6 g
  Body Weight (% Change): 1.0 ± 0.7%
  Tumor Volume: 285 ± 19 mm^3
4.5 mpk biw, day 11
  Body Weight: 24.5 ± 0.7 g
  Body Weight (% Change): 2.4 ± 1.1%
  Tumor Volume: 254 ± 46 mm^3
4.5 mpk biw, day 14
  Body Weight: 25.1 ± 0.6 g
  Body Weight (% Change): 5.0 ± 0.7%
  T/C (%): 23%
  TGI (%): 89%
  Tumor Volume: 285 ± 49 mm^3
  Tumor Size (mm^3): 285 ± 49 mm^3
4.5 mpk biw, day 16
  Body Weight: 24.7 ± 0.8 g
  Body Weight (% Change): 3.1 ± 1.5%
  Tumor Volume: 331 ± 60 mm^3
4.5 mpk biw, day 18
  Body Weight: 25.2 ± 0.8 g
  Body Weight (% Change): 5.3 ± 1.6%
  Tumor Volume: 409 ± 97 mm^3
4.5 mpk biw, day 21
  Body Weight: 25.2 ± 0.7 g
  Body Weight (% Change): 5.2 ± 1.4%
